Common to all, as to test: ITC; 0.5–1 mM peptide titrated into 10–40 μM ecdTDR; 25°C; 10 mM sodium citrate, 100 mM NaCl, pH 5.5; fitted to one set of binding sites; MicroCal Auto-iTC200
Common to all, as to conditions: both partners purified

In assay [1] the target is T1, ecdTDR mutant with all five N-terminal anchoring site-binding residues replaced by alanine (Arabidopsis thaliana, UniProt Q9FII5 30-642).
T1 chain: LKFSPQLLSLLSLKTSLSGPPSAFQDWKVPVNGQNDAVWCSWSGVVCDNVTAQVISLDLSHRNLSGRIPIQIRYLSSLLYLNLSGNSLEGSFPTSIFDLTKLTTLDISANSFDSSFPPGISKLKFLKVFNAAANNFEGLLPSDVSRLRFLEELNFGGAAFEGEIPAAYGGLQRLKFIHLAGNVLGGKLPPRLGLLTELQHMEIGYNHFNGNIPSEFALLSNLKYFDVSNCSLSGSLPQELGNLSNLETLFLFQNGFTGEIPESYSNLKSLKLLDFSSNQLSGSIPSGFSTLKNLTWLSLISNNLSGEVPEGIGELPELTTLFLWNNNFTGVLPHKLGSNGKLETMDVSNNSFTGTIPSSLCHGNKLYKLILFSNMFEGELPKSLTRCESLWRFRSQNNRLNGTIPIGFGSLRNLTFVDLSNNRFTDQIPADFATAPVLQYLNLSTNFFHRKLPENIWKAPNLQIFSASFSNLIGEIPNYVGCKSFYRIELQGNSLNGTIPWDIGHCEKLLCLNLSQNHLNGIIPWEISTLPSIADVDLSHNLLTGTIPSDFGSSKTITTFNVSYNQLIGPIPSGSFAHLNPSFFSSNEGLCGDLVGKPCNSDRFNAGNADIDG

A further assay deals with T2, ecdTDR Q282A mutant (Arabidopsis thaliana, UniProt Q9FII5 30-642, Q282A).
T2 construct: TDR/PXY of A. thaliana, extracellular domain, residues 30-642; source: High Five insect cells (baculovirus), secreted, purified as the wild type (Ni-NTA, size-exclusion chromatography)
T2 sequence (looked up): T1 chain with A109R, A132F, A133S, A158S, A159Y, Q253A

Assay [2] concerns the target T3, ecdTDR Y234 alanine mutant (Arabidopsis thaliana, UniProt Q9FII5 30-642, alanine substitution of Y234).
T3 construct: TDR/PXY of A. thaliana, extracellular domain, residues 30-642; The text says only 'mutational analyses' of Y234; source: High Five insect cells (baculovirus), secreted, purified as the wild type (Ni-NTA, size-exclusion chromatography)
T3 sequence (looked up): T1 chain with A109R, A132F, A133S, A158S, A159Y, Y205A

Where a chain is given by its changes, count along the chain named. Square brackets hold non-standard residues; d marks the D form. Ends that are not written are not given here. Hyp = O=C(O)[C@@H]1C[C@@H](O)CN1

B1: Tracheary Element Differentiation Inhibitory Factor (TDIF) peptide (peptide)
peptide: HEV[Hyp]SG[Hyp]NPISN
notes: TDIF, the 12-residue CLE peptide processed from CLE41 and CLE44 of A. thaliana; printed as HEV(Hyp)SG(Hyp)NPISN; numbers count on: the 12-residue peptide; CLE44 encodes the same peptide; also called wild type TDIF; wtTDIF; source: synthetic peptide (peptide 2.0)
On to B1, for which, in assay [1], the “fold decrease in affinity against wild-type ecdTDR” value came out at 31.4 fold. Further, the binding result (with ecdTDR Q282A mutant; in assay [2]) was “binds” in each case.
